In patent US20080311122A1 (AstraZeneca / MedImmune, published 2008):

T1: activated HMG1 prepared from LPS stimulated THP-1 cells (human, UniProt P09429 1-215)
T1 sequence (looked up): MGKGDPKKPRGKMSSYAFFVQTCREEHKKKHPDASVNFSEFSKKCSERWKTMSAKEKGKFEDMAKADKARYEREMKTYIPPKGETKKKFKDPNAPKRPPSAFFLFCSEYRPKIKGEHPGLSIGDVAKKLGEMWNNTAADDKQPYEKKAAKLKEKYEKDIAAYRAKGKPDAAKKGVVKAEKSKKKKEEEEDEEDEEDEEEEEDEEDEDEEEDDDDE

T2: recombinant HMG1 purified from E. coli as a calmodulin binding protein (CBP) fusion protein (human, UniProt A9RA84 1-215 (Papio anubis entry))
T2 sequence: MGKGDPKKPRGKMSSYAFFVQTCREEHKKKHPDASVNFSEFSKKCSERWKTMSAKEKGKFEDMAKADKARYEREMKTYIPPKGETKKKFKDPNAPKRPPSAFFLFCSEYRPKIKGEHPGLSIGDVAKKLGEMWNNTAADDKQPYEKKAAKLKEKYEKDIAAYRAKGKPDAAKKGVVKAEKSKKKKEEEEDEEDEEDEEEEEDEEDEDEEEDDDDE

T3: HMG1 B Box peptide amino acids 91-169
T3 construct: also called HMG1 peptide 91-169
T3 peptide: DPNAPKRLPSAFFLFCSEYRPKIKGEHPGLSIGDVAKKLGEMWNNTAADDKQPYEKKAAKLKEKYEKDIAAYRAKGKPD

T4: HMG1 B Box peptide amino acids 150-183
T4 peptide: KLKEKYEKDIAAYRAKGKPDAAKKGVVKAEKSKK

T5: HMG1 purified from bovine (calf) thymus (bovine, UniProt P10103 2-215)
T5 construct: also called Calf thymus HMGB1; thymus HMG1
T5 sequence (looked up): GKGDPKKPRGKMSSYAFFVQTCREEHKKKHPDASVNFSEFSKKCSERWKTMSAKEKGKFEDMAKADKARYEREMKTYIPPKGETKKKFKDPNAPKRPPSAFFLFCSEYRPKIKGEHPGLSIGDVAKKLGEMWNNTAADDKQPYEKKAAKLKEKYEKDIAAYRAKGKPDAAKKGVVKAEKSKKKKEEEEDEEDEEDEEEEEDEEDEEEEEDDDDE

T6: recombinant rat HMGB-1, Europium-labeled (rat, UniProt P63159 1-215, limits assumed, Europium label, molar ratio of HMGB-1 to Eu 1:5)
T6 construct: also called Europium-labeled HMGB-1; recombinant HMG1 (Thp-1 assay)
T6 sequence (looked up): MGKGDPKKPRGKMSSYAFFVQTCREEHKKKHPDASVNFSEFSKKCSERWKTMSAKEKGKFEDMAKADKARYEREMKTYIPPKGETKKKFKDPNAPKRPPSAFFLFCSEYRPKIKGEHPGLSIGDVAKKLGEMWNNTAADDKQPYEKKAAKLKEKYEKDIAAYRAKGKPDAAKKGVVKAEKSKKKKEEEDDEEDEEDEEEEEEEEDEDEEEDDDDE

T7: HMGB1 in human brain tissue of multiple sclerosis plaques (human, UniProt P09429 1-215)
T7 construct: also called HMGB1 (MS plaques)
T7 sequence (looked up): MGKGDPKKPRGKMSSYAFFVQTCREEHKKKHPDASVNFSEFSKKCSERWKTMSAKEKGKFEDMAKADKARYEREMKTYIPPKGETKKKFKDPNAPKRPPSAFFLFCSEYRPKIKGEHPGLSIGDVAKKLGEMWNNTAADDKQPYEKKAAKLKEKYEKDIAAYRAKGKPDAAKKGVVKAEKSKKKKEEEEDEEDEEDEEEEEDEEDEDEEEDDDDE


How the values were obtained:
[1] = target: T1, activated HMG1 prepared from LPS …; experiment: cell-based or functional assay
[2] = target: T2, recombinant HMG1 purified from E. coli …; experiment: cell-based or functional assay
[3] = target: T2, recombinant HMG1 purified from E. coli …; experiment: ELISA format 'Soluble HMG1/Captured Antibody' (squares): antibody captured on anti-human IgG Fc, HMG1 in solution
Method: Sandwich ELISA (soluble HMG1): Immunoplates (EIA/RIA plate, High binding, Costar) were coated with anti human IgG Fc at 10 μg/ml in PBS (pH 7.2) and incubated at 4° C. overnight. The coating reagent was removed and the plates were rinsed briefly with PBS. The plates were then blocked with 4% milk for 1 hour at 37° C. and rinsed with PBS. The anti-HMG1 antibodies were diluted in 4% milk. For serial dilutions, the antibodies were used at a starting concentration of 20 μg/ml. The diluted anti-HMG1 antibodies were then added into plate and incubated for 1 hr at 37° C. The plate was then washed 10 times with PBST (PBS/0.1% tween 20) and incubate with antigen (HMGB1, 2 μg/ml; or 0.7 μg/ml for native HMGB1) in 4% milk and incubated at 37° C. for 1 h. The plate was then wash 10 times and incubated with mouse anti-HMGB1, 1 μg/ml in 4% milk at 37° C. for 1 h. The plate was washed 10 times and incubated with anti-mouse IgG-HRP at 1:1000 at 37° C. for 1 h. The plate was then washed and developed. HRP activity was detected with Sureblue HRP substrate (KPL). Plates were read at 450 nm using a Kinetic Microplate Reader (Molecular Devices).

[4] = target: T3, HMG1 B Box peptide amino acids 91-169; experiment: ELISA, wells coated with HMG1 B Box peptide 91-169 at 10 ug/ml
Method: (§1) The plate was then blocked with 4% milk powder dissolved in PBS at 37° C. for 1 hour. The blocking solution was removed and replaced with human anti-HMG1 antibodies at various concentrations (see FIGS. 5A-B). […] HRP activity was detected with Sureblue HRP substrate (KPL). Plates were read at 450 nm using a Kinetic Microplate Reader (Molecular Devices). […] After washing and blocking with 1% BSA in PBS, the biotinylated peptides were individually added into the avidin coated wells and incubated for 30 min at room temperature. The serial diluted antibody G4, S16 and S6 at the initial concentration at 10 μg/ml were then transferred into the wells followed by adding mouse anti human IgG-HRP conjugate (Pierce). Detection was accomplished by adding 50 μl of tetramethylbenzidine (TMB) substrate (KPL) and the absorbance was read at […].

[5] = target: T4, HMG1 B Box peptide amino acids 150-183; experiment: ELISA, wells coated with HMG1 B Box peptide 150-183 at 10 ug/ml
Method: as §1

[6] = target: T5, HMG1 purified from bovine (calf) thymus; experiment: ELISA, wells coated with calf thymus HMGB1 at 5 ug/mL, antibody at 10 ug/mL, anti-human kappa/lambda-HRP, OD 490
Method: Binding to HMG1 vs. HMG2: Ultra high-binding ELISA plates (ThermoLab systems, #3855) were coated with either 5 ug/mL of Calf thymus HMGB1 or HMBG2 diluted in 10 mM Phosphate buffered saline (PBS), pH 7.2 and incubate overnight at 4 degrees. The plates were washed twice with Ca and Mg free PBS and 100 microliters of anti-HMGB1 antibody diluted in 10 mM PBS, pH 7.2+1% bovine serum albumin (BSA) to a final concentration of 10 ug/mL was added to each well and the plates were incubated 1 hour at room temperature. The wells were washed three times with 100 μl of PBS, pH 7.2. HRP labeled goat-anti-human IgG Kappa-chain (KPL, #14-10-10) and goat-anti-human IgG Lambda-chain (KPL, #14-10-11) were diluted in 10 mM PBS+1% BSA 1:1000 and 100 μl were added to each well and incubated for 1 hour at room temperature. The wells were then washed three times with 100 μl of PBS, pH 7.2. OPD substrate (Pierce chemical company, #34006) was prepared following the manufacturers instructions and 100 μl of prepared substrate was added to each well and the plates incubated at room temperature in the dark for 20-30 minutes. The reaction was stopped with the addition of 100 μl of 2M H₂SO₄, and the plates read on a plate reader at a wavelength of 490 nm.

[7] = target: T6, recombinant rat HMGB-1, Europium-labeled; experiment: inhibition of binding of Eu-labeled HMGB-1 to THP-1 cells
Method: HMG1 binding to THP-1 Cells: Recombinant rat HMGB-1 was labeled using Eu-labelling Kit from PerkinElmer. Molar ratio of HMGB-1 to Eu is 1:5. THP-1 were cultured as the protocol from ATCC. Cells were harvested and suspended at concentration 1×10⁶/ml in assay buffer containing 1×DELFIA L*R binding buffer (PerkinElmer), 50% of DELFIA stabilizer (PerkinElmer) and 0.05% of sodium azide. 100 μl of cells (1×10⁵) was added into wells in 96 well cell culture plate. The plate was incubated with gentle shaking at 4° C. for one hour. 100 μl of assay buffer containing 2 nM of Europium-labeled HMGB-1 mixed with various concentrations (333, 166.5, 83.25, 41.6, 20.8, 10.4 and 5.2 nM) of human anti-HMGB1 antibodies E11 or G2 or soluble human RAGE-Fc, were added into each wells respectively. After one hour incubation with gentle shaking at 4° C., the cells were washed four times with 1×L*R wash buffer (PerkinElmer) by centrifuging at 1200 rpm×5 min. 200 μl of enhancement solution was added into each well to dissociate and enhance Eu fluorescence at 615 nm. The fluorescence was measured with Wallac Victor Fluorometer. Assay was performed in triplicate and human antibody R3-47 was used the negative isotype control.

[8] = target: T4, HMG1 B Box peptide amino acids 150-183; experiment: ELISA, wells coated with HMG1 B Box peptide 150-183 at 10 ug/ml, anti-human IgG-HRP, OD 450
Method: as §1

[9] = target: T3, HMG1 B Box peptide amino acids 91-169; experiment: ELISA, wells coated with HMG1 B Box peptide 91-169 at 10 ug/ml, anti-human IgG-HRP, OD 450
Method: as §1

[10] = target: T2, recombinant HMG1 purified from E. coli …; experiment: BIAcore, mAb immobilized, HMG1 injected, steady-state model
Method: HMG1 Binding Affinity via BIAcore Analysis: All experiments were performed on a BIAcore 3000 instrument (BIAcore, Inc., Piscataway, N.J.). Briefly, each mAb was immobilized to a CM5 sensor chip using a standard amino coupling chemistry. Separately a reference (control) flow cell was also prepared. Two-fold, serial dilutions of HMG1 in instrument buffer were sequentially injected at a slow flow rate over the individual mAb and reference flow-cell surfaces. Following the binding and dissociation of HMG1, the mAbs surfaces were regenerated with a brief pulse of 1M NaCl-50 mM NaOH. At the end of each experiment, the binding curves were evaluated using a steady-state model available through the BIA evaluation software supplied by BIAcore, Inc. (Piscataway, N.J.).

[11] = target: T7, HMGB1 in human brain tissue of multiple …; experiment: staining of human brain tissue
Mouse RAGE/Fc = target: T8, Mouse RAGE/Fc (mouse, UniProt Q62151 24-342); experiment: ELISA, HMGB1 titrated on RAGE-Fc in the presence of 0.03 µM CpG-A (right panel)
T8 construct: also called RAGE/Fc fusion; not shown: Fc part not described
T8 sequence (Q62151 24-342): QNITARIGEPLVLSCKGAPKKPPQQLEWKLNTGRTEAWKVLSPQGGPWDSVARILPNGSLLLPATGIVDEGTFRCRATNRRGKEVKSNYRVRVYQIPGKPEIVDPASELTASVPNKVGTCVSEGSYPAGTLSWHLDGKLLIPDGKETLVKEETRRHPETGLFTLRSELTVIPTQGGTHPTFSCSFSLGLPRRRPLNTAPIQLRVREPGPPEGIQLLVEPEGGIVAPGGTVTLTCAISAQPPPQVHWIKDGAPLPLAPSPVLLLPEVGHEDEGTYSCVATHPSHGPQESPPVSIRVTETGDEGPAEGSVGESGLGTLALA

| Binder | IC50, inhibition of native activated HMG1 stimulated IL-6 release from human PBMC [1] [nM] | IC50, inhibition of HMG1 stimulated NO release from macrophages [2] [µg/mL] | IC50, inhibition of rHMG1 stimulated IL-6 release from human PBMC [2] [nM] | EC50 (read off the curve) [3] [µg/mL] | binding result [4] | binding result [5] | binding result [6] | IC50 [7] [nM] | binding result [8] | binding result [9] | Kd [10] [nM] | binding result [11] | EC50 (read off the curve) (Mouse RAGE/Fc) [nM] |
| --- | --- | --- | --- | --- | --- | --- | --- | --- | --- | --- | --- | --- | --- |
| anti-HMG1 antibody S12 (antibody, V domains shown) VH: EVQLLESGGGLVQPGGSLRLSCAASGFTFSKYIMHWVRQAPGKGLEWVSGIVPSGGLTEYADSVKGRFTISRDNSKNTLYLQMNSLRAEDTATYYCAKEIFGQFDYWGQGTLVTVSS VL: AQSALTQPPSVSAAPRQRVTISCSGSTSNIGNNAVTWYQYFPGKAPKLLIYSDNQRPSGVPDRFSGSKSGTSASLAITGLQAEDEADYYCQSYDRGLSVVFGGGTKLTVL | – | – | 1.67 | – | – | – | binds | – | binds | binds | – | – | – |
| anti-HMG1 antibody G16 (antibody, V domains shown) VH: EVQLLESGGGLVQPGGSLRLSCAASGFTFSWYKMTWVRQAPGKGLEWVSSISPSGGFTSYADSVKGRFTISRDNSKNTLYLQMNSLRAEDTAVYYCARDLDIRHAFDIWGQGTMVTVSS VL: DIQMTQSPGTLSLSPGESGTLSCRASESVSSRHFAWYQQKPGQAPRLLIYGASSRPTGIPDRFSGSGSGTDFTLTLSRLEPEDFAVYFCQYYGSSPYTFGGGTKVEMK | – | 22 | 1.06 | – | no binding (tested: 10 ug/ml (log 1.00)) | no binding (tested: 10 ug/ml (log 1.00)) | – | – | – | – | 22 | binds | – |

Second part, the binder after the results:

| IC50, inhibition of native activated HMG1 stimulated IL-6 release from human PBMC [1] [nM] | IC50, inhibition of HMG1 stimulated NO release from macrophages [2] [µg/mL] | IC50, inhibition of rHMG1 stimulated IL-6 release from human PBMC [2] [nM] | EC50 (read off the curve) [3] [µg/mL] | binding result [4] | binding result [5] | binding result [6] | IC50 [7] [nM] | binding result [8] | binding result [9] | Kd [10] [nM] | binding result [11] | EC50 (read off the curve) (Mouse RAGE/Fc) [nM] | Binder |
| --- | --- | --- | --- | --- | --- | --- | --- | --- | --- | --- | --- | --- | --- |
| 1.73 | 101 | 1.22 | ~0.4 | no binding (tested: 10 ug/ml (log 1.00)) | no binding (tested: 10 ug/ml (log 1.00)) | binds | 48.1 | – | – | – | – | – | anti-HMG1 antibody E11 (antibody, V domains shown) VH: EVQLLESGGGLVQPGGSLRLSCAASGFTFSRYQMNWVRQAPGKGLEWVSSISPSGGHTHYADSVKGRFTISRDNSKNTLYLQMNSLRAEDTAVYYCAKDGRQGKISTVDHWGQGTLVTVSS VL: DIQMTQSPGTLSLSPGERATLSCRASQSVRSNFLAWYQQKPGQAPRLLIYGASRRASGIPDRFSGSGFGADFTLSISRLEPEDFAVYYCQQYGSSPNTFGQGSRVEIK |
| – | – | – | – | – | – | – | – | – | – | – | – | ~100 | HMGB1/CpG-A complex (other, bovine, UniProt P10103 2-215, looked up, also called HMGB1/CpG complex; CpG/HMGB1 complex) GKGDPKKPRGKMSSYAFFVQTCREEHKKKHPDASVNFSEFSKKCSERWKTMSAKEKGKFEDMAKADKARYEREMKTYIPPKGETKKKFKDPNAPKRPPSAFFLFCSEYRPKIKGEHPGLSIGDVAKKLGEMWNNTAADDKQPYEKKAAKLKEKYEKDIAAYRAKGKPDAAKKGVVKAEKSKKKKEEEEDEEDEEDEEEEEDEEDEEEEEDDDDE |
